{"source": "IntAct's records for PubMed 20562859", "key": {"rasf1_human RASSF1": {"molecular_target": "T1, rasf1_human RASSF1 (UniProt Q9NS23)", "T1 sequence": "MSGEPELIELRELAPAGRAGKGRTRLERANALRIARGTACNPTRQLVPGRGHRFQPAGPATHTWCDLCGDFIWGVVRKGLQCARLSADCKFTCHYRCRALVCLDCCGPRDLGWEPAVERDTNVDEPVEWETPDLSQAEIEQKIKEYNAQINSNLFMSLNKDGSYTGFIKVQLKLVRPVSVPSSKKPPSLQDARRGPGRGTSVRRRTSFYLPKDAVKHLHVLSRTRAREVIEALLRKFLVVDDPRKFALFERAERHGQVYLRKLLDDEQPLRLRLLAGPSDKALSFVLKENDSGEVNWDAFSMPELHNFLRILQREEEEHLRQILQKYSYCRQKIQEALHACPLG"}, "stk4_human STK4": {"molecular_target": "T2, stk4_human STK4 (UniProt Q13043)", "T2 sequence": "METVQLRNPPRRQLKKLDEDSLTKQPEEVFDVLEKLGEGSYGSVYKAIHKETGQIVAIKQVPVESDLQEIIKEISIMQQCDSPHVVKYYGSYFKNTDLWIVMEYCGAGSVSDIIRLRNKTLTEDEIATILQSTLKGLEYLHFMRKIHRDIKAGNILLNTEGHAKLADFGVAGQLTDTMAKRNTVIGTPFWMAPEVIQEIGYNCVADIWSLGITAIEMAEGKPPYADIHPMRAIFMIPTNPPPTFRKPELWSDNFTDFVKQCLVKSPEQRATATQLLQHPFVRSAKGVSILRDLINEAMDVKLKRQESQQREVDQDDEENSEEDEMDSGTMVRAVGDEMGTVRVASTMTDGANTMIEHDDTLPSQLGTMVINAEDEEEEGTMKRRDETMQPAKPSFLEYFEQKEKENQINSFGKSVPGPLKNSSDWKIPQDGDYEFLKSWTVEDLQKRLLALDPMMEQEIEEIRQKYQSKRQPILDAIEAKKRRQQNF"}, "kbtb7_human KBTBD7": {"molecular_target": "T3, kbtb7_human KBTBD7 (UniProt Q8WVZ9)", "T3 sequence": "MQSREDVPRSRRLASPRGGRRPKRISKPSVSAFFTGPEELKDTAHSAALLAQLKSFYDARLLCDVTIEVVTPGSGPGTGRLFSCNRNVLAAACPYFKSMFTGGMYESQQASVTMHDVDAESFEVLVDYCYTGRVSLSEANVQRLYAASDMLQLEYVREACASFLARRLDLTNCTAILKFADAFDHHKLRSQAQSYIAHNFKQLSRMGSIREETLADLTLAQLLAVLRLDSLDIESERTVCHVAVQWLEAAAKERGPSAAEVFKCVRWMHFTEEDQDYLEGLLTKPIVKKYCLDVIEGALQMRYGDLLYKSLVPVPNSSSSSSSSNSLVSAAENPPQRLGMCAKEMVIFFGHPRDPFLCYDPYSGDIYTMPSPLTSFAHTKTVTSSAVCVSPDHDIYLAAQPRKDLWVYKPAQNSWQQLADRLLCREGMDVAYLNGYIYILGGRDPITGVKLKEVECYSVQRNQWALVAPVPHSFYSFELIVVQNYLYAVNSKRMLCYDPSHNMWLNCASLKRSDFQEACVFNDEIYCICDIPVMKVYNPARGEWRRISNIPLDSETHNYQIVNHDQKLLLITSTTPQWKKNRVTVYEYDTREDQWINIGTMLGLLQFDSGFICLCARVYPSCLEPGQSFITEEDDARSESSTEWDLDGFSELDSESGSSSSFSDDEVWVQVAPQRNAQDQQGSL"}, "uba5_human UBA5": {"molecular_target": "uba5_human UBA5 (UniProt Q9GZZ9)", "sequence (Q9GZZ9 whole entry)": "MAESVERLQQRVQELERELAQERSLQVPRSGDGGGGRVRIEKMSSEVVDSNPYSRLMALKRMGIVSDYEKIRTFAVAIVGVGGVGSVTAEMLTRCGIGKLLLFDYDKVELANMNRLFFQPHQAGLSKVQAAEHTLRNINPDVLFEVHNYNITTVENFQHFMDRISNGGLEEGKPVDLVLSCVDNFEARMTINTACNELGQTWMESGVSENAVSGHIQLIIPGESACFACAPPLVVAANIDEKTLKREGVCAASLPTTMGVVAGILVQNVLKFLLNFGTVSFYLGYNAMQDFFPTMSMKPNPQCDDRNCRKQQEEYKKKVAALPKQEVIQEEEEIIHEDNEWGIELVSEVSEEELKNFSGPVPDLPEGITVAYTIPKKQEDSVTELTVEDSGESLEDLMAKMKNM"}, "ATG16L2": {"molecular_target": "T4, ATG16L2 (UniProt Q8NAA4)", "T4 sequence": "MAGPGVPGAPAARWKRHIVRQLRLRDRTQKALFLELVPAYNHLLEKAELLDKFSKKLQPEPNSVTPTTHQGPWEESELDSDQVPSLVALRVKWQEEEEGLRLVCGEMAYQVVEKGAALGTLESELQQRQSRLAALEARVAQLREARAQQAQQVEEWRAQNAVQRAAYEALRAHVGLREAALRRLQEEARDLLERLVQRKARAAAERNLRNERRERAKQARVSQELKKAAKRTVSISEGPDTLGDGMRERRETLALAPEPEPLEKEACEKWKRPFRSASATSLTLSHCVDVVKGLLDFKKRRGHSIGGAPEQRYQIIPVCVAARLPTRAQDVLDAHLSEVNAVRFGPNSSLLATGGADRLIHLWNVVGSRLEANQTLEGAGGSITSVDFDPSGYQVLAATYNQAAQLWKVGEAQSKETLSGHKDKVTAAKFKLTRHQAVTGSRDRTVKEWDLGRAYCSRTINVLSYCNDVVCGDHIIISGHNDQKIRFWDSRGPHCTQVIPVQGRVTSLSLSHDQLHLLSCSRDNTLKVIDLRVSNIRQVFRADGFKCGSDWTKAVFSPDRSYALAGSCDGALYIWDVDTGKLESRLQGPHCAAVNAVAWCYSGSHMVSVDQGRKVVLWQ"}, "atg5_human ATG5": {"molecular_target": "atg5_human ATG5 (UniProt Q9H1Y0)", "sequence (Q9H1Y0 whole entry)": "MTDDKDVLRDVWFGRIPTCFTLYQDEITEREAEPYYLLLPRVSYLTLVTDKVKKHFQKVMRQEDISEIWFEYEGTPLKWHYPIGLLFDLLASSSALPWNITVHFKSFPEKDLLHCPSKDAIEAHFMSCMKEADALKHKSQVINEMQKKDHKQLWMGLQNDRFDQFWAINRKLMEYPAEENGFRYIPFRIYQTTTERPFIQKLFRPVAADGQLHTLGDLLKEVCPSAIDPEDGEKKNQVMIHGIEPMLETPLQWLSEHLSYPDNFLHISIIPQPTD"}}}
{"substance": "Microtubule-associated protein 1 light chain 3 beta (Homo sapiens) (from UniProt Q9GZQ8) R69A", "values": [{"measurement": "effect of a mutation on the interaction", "setting": "rasf1_human RASSF1", "result": "decreasing interaction"}, {"measurement": "effect of a mutation on the interaction", "setting": "stk4_human STK4", "result": "disrupting interaction"}, {"measurement": "effect of a mutation on the interaction", "setting": "kbtb7_human KBTBD7", "result": "disrupting interaction"}, {"measurement": "effect of a mutation on the interaction", "setting": "uba5_human UBA5", "result": "disrupting interaction"}]}
{"substance": "Microtubule-associated protein 1 light chain 3 beta (Homo sapiens) (from UniProt Q9GZQ8) F52A;L53A", "values": [{"measurement": "effect of a mutation on the interaction", "setting": "ATG16L2", "result": "increasing interaction"}, {"measurement": "effect of a mutation on the interaction", "setting": "kbtb7_human KBTBD7", "result": "decreasing interaction"}, {"measurement": "effect of a mutation on the interaction", "setting": "atg5_human ATG5", "result": "increasing interaction"}]}
